Publication PMC4070327

Molecular target: TF^SBD-PPD (substrate-binding domain plus peptidyl prolyl isomerase domain of E. coli TF) (E. coli) (UniProt P0A850)
Test: NMR relaxation dispersion

Sequence of PhoA^d-e (PhoA fragment with TF-binding sites d and e) (P00634 220-310): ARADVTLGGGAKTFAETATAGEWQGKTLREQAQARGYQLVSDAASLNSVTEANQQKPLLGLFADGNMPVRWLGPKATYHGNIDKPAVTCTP

## PhoA^a-c (PhoA fragment with TF-binding sites a to c) (from UniProt P00634 1-150) (domain or fragment)
  koff: 50 s⁻¹
  residence time (1/koff): 20 ms

## PhoA^d-e (PhoA fragment with TF-binding sites d and e) (from UniProt P00634 220-310) (domain or fragment)
  residence time (1/koff): 20 ms
